According to patent US20190194356A1:
Values belong to the binder of their own block, whether it stands above or below them.

Target: cynomolgus PCSK9 antigen (NCBI NM_001112660.1) (cynomolgus)
Assay: BLI (Octet Red 96), antibody on anti-human IgG Fc (AHC) biosensor, PCSK9 in solution, 1:1 model

Kd: < 0.001 nM
koff: < 1e-07 s⁻¹
kon: 298000 M⁻¹ s⁻¹
B1: monoclonal antibody 9M284 (antibody, human IgG2, lambda)
heavy: QVQLVQSGAEVKKPGSSVKVSCKASAFTFDSFGMHWVRQAPGQGLEWMGLLWSDGSGEYYADSAKGRFTISRDNSKNTLYLQMNSLRSDDTAVYYCARAMGAIYYYYAMDVWGQGTTVTVSSASTKGPSVFPLAPCSRSTSESTAALGCLVKDYFPEPVTVSWNSGALTSGVHTFPAVLQSSGLYSLSSVVTVPSSNFGTQTYTCNVDHKPSNTKVDKTVERKCCVECPPCPAPPVAGPSVFLFPPKPKDTLMISRTPEVTCVVVDVSHEDPEVQFNWYVDGVEVHNAKTKPREEQFNSTFRVVSVLTVVHQDWLNGKEYKCKVSNKGLPAPIEKTISKTKGQPREPQVYTLPPSREEMTKNQVSLTCLVKGFYPSDIAVEWESNGQPENNYKTTPPMLDSDGSFFLYSKLTVDKSRWQQGNVFSCSVMHEALHNHYTQKSLSLSPG
light: QSALTQPPSVSGSPGQSVTISCTGTSSNIGNQFVSWYQQLPGTAPKLMIYEYNKRPSGVPDRFSGSKSGNTASLTISGLQTGDEADYYCGSWDSSLSGYVFGTGTRVTVLGQPKAAPSVTLFPPSSEELQANKATLVCLISDFYPGAVTVAWKADSSPVKAGVETTTPSKQSNNKYAASSYLSLTPEQWKSHRSYSCQVTHEGSTVEKTVAPTECS

Kd: 0.08 nM
koff: 2.46e-05 s⁻¹
kon: 308000 M⁻¹ s⁻¹
B2: monoclonal antibody 9M283 (antibody, human IgG2, lambda, V domains shown)
VH: QVQLVQSGAEVKKPGSSVKVSCKASAFTFDSFGMHWVRQAPGQGLEWMGLLWSDGSDEYYADSAKGRFTISRDNSKNTLYLQMNSLRSDDTAVYYCARALGAIYSYYAMDVWGQGTTVTVSS
VL: QSALTQPPSVSGSPGQSVTISCTGTSSNIGNQFVSWYQQLPGTAPKLMIYEYNKRPSGVPDRFSGSKSGNTASLTISGLQTGDEADYYCGSWDSSLSGYVFGTGTRVTVLG
